The values that follow are results of earlier work, collected in publication PMC8915186.

By Kd is commonly meant the concentration at which binding is half-saturated.

The target in this data set is IL-1R1 (Homo sapiens) (UniProt P14778).
UniProt P14778, sequence (P14778 18-569): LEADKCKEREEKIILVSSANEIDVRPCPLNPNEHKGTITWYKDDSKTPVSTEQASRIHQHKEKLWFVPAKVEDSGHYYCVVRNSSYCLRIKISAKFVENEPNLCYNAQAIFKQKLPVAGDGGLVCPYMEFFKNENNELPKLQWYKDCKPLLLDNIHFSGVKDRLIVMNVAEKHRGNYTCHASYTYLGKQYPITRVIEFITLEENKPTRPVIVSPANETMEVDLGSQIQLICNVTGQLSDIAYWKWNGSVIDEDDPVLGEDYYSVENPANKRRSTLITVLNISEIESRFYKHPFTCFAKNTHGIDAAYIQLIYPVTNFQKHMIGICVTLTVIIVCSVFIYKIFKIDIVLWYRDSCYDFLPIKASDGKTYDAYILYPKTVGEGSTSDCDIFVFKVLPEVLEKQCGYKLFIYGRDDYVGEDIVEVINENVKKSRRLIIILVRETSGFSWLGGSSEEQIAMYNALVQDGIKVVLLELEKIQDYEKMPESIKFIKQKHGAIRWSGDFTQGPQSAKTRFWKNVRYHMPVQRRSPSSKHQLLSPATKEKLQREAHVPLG

With IL-1β (from UniProt P01584), the dissociation constant (Kd) is 2 nM.
